# Legend:
# [1] = target: T1, endogenous Aβ(1-42) in human CSF (human); assay: IP from AD patient CSF, urea-PAGE Western blot, share of Aβ42 in recovered Aβ40+42
# T1 construct: Endogenous peptide in cerebrospinal fluid of MCI and AD patients; it was quantified after elution by ELISA or urea-PAGE Western blot; also called Aβ42; Amyloid β(1-42)
# Experimental: Immunoprecipitation of Abeta Species from Human AD-CSF: 250 μL aliquot of the prepared CSF sample were added to 25 μL anti-Aβ-Dynabeads suspension. Immunoprecipitation occurred under stirring at 6° C. for 16 hours. Subsequent washing of the beads was performed 3 times 5 min. with 1 mL PBS/0.1% (w/v) BSA and finally once 3 min. with 1 mL 10 mM Tris/HCL pH 7.5 buffer. During the washing procedure, the supernatant was carefully removed while the dynabeads were immobilized at the side of the reaction vial with a magnetic separator stand (MSS). The residual supernatant was thoroughly removed after the final washing step. […] After cooling to room temperature, the dynabeads were immobilized at the side of the reaction vial with a magnetic separator stand (MSS), and the supernatant was transferred to another Eppendorff tube (IP eluate).
# 15 μL IP eluate aliquots of the immunoprecipitated samples were loaded onto the 8 M Urea PAGE. Electrophoresis was performed at 100 V (15 min) and continued at 60 V. The electrophoresis was stopped when the running front of the blue sample loading dye was still 0.5 cm away from the end of the gel.
# [2] = target: T2, Aβ(1-42) monomer, HFIP pretreated (human); assay: sandwich ELISA, 6G1 capture, antigen titrated, biotinylated 8F5 detection
# T2 construct: also called Aβ(1-42) monomer in HFIP; Aβ(1-42) monomer HFIP treated
# Experimental: (§1) Two types of experiments were performed. […] This experiment is described in Example 2.1 below.
# (§2) Add 10 μl Aβ(1-42) monomer HFIP-pretreated standard stock solution to 44041 PBST+0.5% BSA 10 μg/ml Add 50 μl 10 μg/ml Aβ(1-42) monomer HFIP pretreated standard solution to 495041 PBST+0.5% BSA=100 ng/ml c) Aβ(1-42) monomer in NH4OH Add 5 μl Aβ(1-42) monomer in NH4OH standard stock solution to 995 μl PBST+0.5% BSA=[…] Add 50 μl 10 μg/ml Aβ(1-42) monomer in NH4OH standard solution to 495041 PEST+[…]=100 ng/ml d) Aβ(1-40) monomer HFIP-pretreated Add 1 μl Aβ(1-40) monomer HFIP pretreated standard stock solution to 49 μl PBST+0.5% BSA=430 μg/ml Add 10 μl 430 μg/ml Aβ(1-40) monomer HFIP pretreated standard solution to […] PEST+0.5% BSA=10 μg/ml Add 50 μl 10 μg/ml Aβ(1-40) monomer HFIP pretreated standard solution to 4950 μl PBST+0.5% BSA 100 ng/ml Standard Curves:
# (§3) 1. Apply 100 μl anti-Aβ mMAb 6G1 solution per well and incubate overnight at 4° C. 2. Discard the antibody solution and wash the wells with 250 μl PBST-Buffer three times. 3. Add 260 μl block solution per well and incubate 2 h at room temperature. 4. Discard the block solution and wash the wells with 250 μl PBST-Buffer three times. 5. After preparation of standards, apply 100 μl per well of standards to the plate. Incubate 2 h at room temperature and overnight at 4° C. 6. Discard the standard solution and wash the wells with 250 μl PBST-Buffer three times. 7. […] 8. Discard the antibody solution and wash the wells with 250 μl PBST-Buffer three times. 9. Add 200 μl label solution per well and incubate 1 h at room temperature. 10. Discard the label solution and wash the wells with 250 μl PBST-Buffer three times. 11. Add 100 μl of TMB solution to each well and incubate at room temperature (5-15 min). 12.
# Aβ(1-40) monomer [3] = target: T3, Aβ(1-40) monomer (human); assay: as above
# T3 construct: also called Aβ40; Aβ(1-40) monomer HFIP pretreated
# Experimental: as §1, §2, §3
# Aβ(1-42) globulomer [4] = target: T4, Aβ(1-42) globulomer (human, UniProt P05067 672-713); assay: as above
# T4 construct: The definitions give n=12-14 subunits for late assembly forms; no subunit number is stated for the preparation used; also called A-beta (1-42) globulomer; Aβ(1-42) globular oligomer
# Experimental: as §1, §2, §3
# [5] = target: Aβ(1-42) monomer in NH4OH (human); assay: as above
# Experimental: as §1, §2, §3
# Aβ(1-42) globulomer [6] = target: T4, Aβ(1-42) globulomer; assay: sandwich ELISA, reference Aβ(1-42) monomer
# Aβ(1-40) monomer [7] = target: T3, Aβ(1-40) monomer; assay: dot blot, 10 pmol antigen on nitrocellulose, 0.2 µg/ml antibody, densitometry
# Experimental: (§4) In a second example, described in Example 2.2 below, the oligomer selectivity versus Aβ(1-42) monomer and Aβ(1-40) monomer was examined by dot blot immunoassay.
# (§5) Serial dilutions of Aβ(1-42) globulomer, Aβ1-42 monomer and Aβ1-40 monomer were made in the range from 100 pmol/μl-0.01 pmol/μl in PBS. Of each sample, 1 μl was dotted onto a nitrocellulose membrane. […] The detection signal was analyzed in its intensity (reflective density=RD) via a densitometer (GS 800, Biorad, Hercules, Calif., USA) at an antigen concentration of 10 pmol.
# Aβ(1-42) globulomer [8] = target: T4, Aβ(1-42) globulomer; assay: as above
# Experimental: as §4, §5
# [9] = target: T5, Aβ1-42 monomer (dot blot) (human); assay: as above
# T5 construct: also called Aβ42 monomer
# Experimental: as §4, §5
# Aβ(1-42) globulomer [10] = target: T4, Aβ(1-42) globulomer; assay: dot blot, reference Aβ(1-42) monomer
# Experimental: as §4, §5
# Aβ(1-42) globulomer [11] = target: T4, Aβ(1-42) globulomer; assay: dot blot, reference Aβ(1-40) monomer
# Experimental: as §4, §5
# [12] = target: T2, Aβ(1-42) monomer, HFIP pretreated; assay: sandwich ELISA, EC50 of this antigen divided by EC50 of Aβ(1-42) globulomer
# Aβ(1-40) monomer [13] = target: T3, Aβ(1-40) monomer; assay: as above
# [14] = target: Aβ(1-42) monomer in NH4OH (human); assay: as above
# Aβ(1-40) monomer [15] = target: T3, Aβ(1-40) monomer; assay: dot blot, 10 pmol antigen on nitrocellulose, densitometry
# Experimental: as §4, §5
# Aβ(1-42) globulomer [16] = target: T4, Aβ(1-42) globulomer; assay: as above
# Experimental: as §4, §5
# [17] = target: T5, Aβ1-42 monomer (dot blot); assay: as above
# Experimental: as §4, §5
# T3 sequence (peptide, as listed by the source): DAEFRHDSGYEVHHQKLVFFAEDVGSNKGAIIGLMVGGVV
# T4 sequence (P05067 672-713 limits assumed): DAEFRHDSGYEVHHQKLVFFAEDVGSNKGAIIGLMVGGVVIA
# T2 sequence (peptide, as listed by the source): as the sequence (P05067 672-713 limits assumed) above
# Aβ(1-42) monomer in NH4OH (human), sequence (peptide, as listed by the source): as the sequence (P05067 672-713 limits assumed) above
# T1 sequence (peptide, as listed by the source): as the sequence (P05067 672-713 limits assumed) above
# T5 sequence (peptide, as listed by the source): as the sequence (P05067 672-713 limits assumed) above
Binder,Ratio Aβ42/Aβ40+42 × 100% [1],Log EC50 [2],Log EC50 (Aβ(1-40) monomer [3]),Log EC50 (Aβ(1-42) globulomer [4]),Log EC50 [5],selectivity for Aβ(1-42) globulomer versus Aβ(1-42) monomer (Aβ(1-42) globulomer [6]),Reflective Density (RD) [10 pmol] (Aβ(1-40) monomer [7]),Reflective Density (RD) [10 pmol] (Aβ(1-42) globulomer [8]),Reflective Density (RD) [10 pmol] [9],Ratio RD Aβ(1-42) globulomer/RD Aβ(1-42) monomer (Aβ(1-42) globulomer [10]),Ratio RD Aβ(1-42) globulomer/RD Aβ(1-40) monomer (Aβ(1-42) globulomer [11]),selectivity factor (EC50 ratio against Aβ(1-42) globulomer) [12],selectivity factor (EC50 ratio against Aβ(1-42) globulomer) (Aβ(1-40) monomer [13]),selectivity factor (EC50 ratio against Aβ(1-42) globulomer) [14],Reflective Density (RD) [10 pmol] (Aβ(1-40) monomer [15]),Reflective Density (RD) [10 pmol] (Aβ(1-42) globulomer [16]),Reflective Density (RD) [10 pmol] [17]
"monoclonal antibody 8F5 (antibody, V domains shown, Murine monoclonal antibody from a hybridoma (Balb/c mice immunized with Aβ(1-42) globulomer); Biotinylated with Sulfo-NHS-Biotin for the sandwich ELISA; coupled to Sepharose or Dynabeads for the immunoprecipitations; also called mMAb 8F5; anti-Aβ mouse Mab 8F5) VH: EVQLVESGGGLVQPGGSLKLSCAASGFTFSSYGMSWVRQTPDKRLELVASINSNGGSTYYPDSVKGRFTISRDNAKNTLYLQMSSLKSEDTAMYYCASGDYWGQGSTLTVSS VL: DVVMTQTPLSLPVSLGDQASISCRSSQSLVYSNGDTYLHWYLQKPGQSPKLLIYKVSNRFSGVPDRFSGSGSGTDFTLKISRVEAEDLGVYFCSQSTHVPWTFGGGTKLEIKR",8.1%,2.75,2.83,1.96,3,~10 fold,0.1 RD,1.6 RD,1.1 RD,1.4,16.9,6.1 fold,7.4 fold,11.1 fold,–,–,–
"monoclonal antibody 8C5 (antibody, V domains shown, Murine monoclonal antibody from a hybridoma; Biotinylated for the sandwich ELISA; also called mMab 8C5; 5C5) VH: EVQLVESGGGLVQPGGSLKLSCTASGFTFSSYGMSWVRQTPDKRLELVASIKNNGGSTYYPDSLKGRFTISRDNAKNTLYLQMSSLKSEDTAMYYCASGDYWGQGTTLTVSS VL: DVVMTQTPLSLPVSLGDQASISCRSSQSLVHSNGDTFLHWYLQKPGQSPKLLIYKVSNRFSGVPDRFSGSGSGTDFTLKISRVEAEDLGIYFCSQSIHVPWTFGGGTKLEIKR",14.9%,–,–,–,–,–,–,–,–,5.1,4.1,4.1 fold,> 100 fold,> 100 fold,0.3 RD,1.3 RD,0.2 RD

# Source: patent US8497072 (AbbVie / Abbott, dated 2013)
